# From paper PMC12421383, “Autophosphorylation of conserved yeast and human casein kinase 1 isozymes regulates Elongator-dependent tRNA modifications” (Nucleic Acids Research, 2025)
# T1: FL GST-Elp1 (Saccharomyces cerevisiae (budding yeast), UniProt Q06706 1-1349)
# T1 construct: Elp1, Elongator subunit of Saccharomyces cerevisiae, full length, expressed from the pETM30 vector; also called Elongator subunit Elp1
# T1 sequence (looked up): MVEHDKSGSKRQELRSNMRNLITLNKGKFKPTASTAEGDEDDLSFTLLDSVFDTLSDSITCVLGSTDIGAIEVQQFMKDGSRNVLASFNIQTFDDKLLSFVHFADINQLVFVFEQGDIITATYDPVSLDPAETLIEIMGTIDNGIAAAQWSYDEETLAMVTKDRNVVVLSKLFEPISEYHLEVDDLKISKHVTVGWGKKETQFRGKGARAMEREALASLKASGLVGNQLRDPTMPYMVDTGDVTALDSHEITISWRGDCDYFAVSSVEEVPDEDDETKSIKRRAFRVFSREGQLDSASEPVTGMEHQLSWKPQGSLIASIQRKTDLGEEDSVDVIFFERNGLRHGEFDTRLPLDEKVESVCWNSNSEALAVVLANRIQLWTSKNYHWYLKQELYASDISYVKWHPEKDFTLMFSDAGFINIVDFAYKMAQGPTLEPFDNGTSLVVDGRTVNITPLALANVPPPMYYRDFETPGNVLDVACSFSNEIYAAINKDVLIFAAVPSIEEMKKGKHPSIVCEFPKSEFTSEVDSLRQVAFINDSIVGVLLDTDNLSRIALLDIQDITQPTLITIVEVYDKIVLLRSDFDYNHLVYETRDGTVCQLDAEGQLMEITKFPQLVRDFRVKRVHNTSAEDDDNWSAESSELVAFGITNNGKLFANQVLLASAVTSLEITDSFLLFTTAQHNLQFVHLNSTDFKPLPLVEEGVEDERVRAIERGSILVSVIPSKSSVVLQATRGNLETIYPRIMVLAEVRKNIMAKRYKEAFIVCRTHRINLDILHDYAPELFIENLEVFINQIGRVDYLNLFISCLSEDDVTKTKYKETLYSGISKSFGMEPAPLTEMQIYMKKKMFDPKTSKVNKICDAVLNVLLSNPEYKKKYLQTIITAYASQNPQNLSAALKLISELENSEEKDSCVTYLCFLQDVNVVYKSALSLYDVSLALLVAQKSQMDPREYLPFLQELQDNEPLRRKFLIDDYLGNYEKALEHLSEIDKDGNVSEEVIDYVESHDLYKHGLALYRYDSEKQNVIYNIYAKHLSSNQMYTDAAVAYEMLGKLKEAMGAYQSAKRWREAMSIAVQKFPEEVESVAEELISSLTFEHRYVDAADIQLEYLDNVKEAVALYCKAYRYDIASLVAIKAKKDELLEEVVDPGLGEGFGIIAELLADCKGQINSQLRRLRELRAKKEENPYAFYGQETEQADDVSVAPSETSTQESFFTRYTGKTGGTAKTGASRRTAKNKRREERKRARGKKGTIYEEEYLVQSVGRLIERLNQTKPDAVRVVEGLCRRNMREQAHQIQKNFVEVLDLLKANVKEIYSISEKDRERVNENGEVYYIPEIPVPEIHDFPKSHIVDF
# T2: Hrr25 1-394, nonphosphorylated (Saccharomyces cerevisiae (budding yeast), UniProt P29295 1-394)
# T2 construct: pETM11 with a TEV cleavage site after the tag; also called P/Q truncation; truncation variant lacking the P/Q-rich region; source: E. coli pRARE cells, purified (NiNTA, gel filtration)
# T2 sequence (looked up): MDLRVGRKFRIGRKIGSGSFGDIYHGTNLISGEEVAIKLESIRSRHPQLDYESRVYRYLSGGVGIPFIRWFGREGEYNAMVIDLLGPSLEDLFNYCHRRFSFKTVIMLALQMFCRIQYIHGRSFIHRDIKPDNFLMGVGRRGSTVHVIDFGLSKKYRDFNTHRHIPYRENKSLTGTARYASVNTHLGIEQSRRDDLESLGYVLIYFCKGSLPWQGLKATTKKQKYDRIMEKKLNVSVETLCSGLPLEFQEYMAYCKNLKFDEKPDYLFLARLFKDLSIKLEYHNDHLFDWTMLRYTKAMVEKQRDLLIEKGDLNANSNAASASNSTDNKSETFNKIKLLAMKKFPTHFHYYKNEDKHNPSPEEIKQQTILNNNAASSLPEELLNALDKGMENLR
# T3: GST-Elp1 1-734 (Saccharomyces cerevisiae (budding yeast), UniProt Q06706 1-734)
# T3 construct: also called truncated form of GST-Elp1
# T3 sequence (looked up): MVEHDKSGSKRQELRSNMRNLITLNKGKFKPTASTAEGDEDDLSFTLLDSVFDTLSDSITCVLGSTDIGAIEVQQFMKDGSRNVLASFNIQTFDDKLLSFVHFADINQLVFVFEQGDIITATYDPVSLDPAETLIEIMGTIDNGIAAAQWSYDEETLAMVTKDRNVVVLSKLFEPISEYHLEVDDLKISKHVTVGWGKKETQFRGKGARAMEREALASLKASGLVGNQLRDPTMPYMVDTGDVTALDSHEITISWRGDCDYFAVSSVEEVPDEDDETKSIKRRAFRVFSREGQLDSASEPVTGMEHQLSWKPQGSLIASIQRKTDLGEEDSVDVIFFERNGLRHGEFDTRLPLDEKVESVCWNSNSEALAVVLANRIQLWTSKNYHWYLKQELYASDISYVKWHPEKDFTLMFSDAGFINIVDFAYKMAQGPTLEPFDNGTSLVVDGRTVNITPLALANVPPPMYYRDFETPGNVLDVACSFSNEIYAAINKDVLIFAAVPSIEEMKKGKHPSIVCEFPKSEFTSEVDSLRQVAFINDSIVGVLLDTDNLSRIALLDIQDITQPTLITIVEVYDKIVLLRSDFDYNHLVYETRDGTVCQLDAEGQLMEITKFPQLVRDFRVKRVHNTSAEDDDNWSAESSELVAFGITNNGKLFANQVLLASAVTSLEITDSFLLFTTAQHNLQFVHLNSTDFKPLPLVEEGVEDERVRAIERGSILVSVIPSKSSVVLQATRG
# B1: full-length (FL) yeast Hrr25, nonphosphorylated (enzyme, Saccharomyces cerevisiae (budding yeast), UniProt P29295 1-494, looked up)
# chain: MDLRVGRKFRIGRKIGSGSFGDIYHGTNLISGEEVAIKLESIRSRHPQLDYESRVYRYLSGGVGIPFIRWFGREGEYNAMVIDLLGPSLEDLFNYCHRRFSFKTVIMLALQMFCRIQYIHGRSFIHRDIKPDNFLMGVGRRGSTVHVIDFGLSKKYRDFNTHRHIPYRENKSLTGTARYASVNTHLGIEQSRRDDLESLGYVLIYFCKGSLPWQGLKATTKKQKYDRIMEKKLNVSVETLCSGLPLEFQEYMAYCKNLKFDEKPDYLFLARLFKDLSIKLEYHNDHLFDWTMLRYTKAMVEKQRDLLIEKGDLNANSNAASASNSTDNKSETFNKIKLLAMKKFPTHFHYYKNEDKHNPSPEEIKQQTILNNNAASSLPEELLNALDKGMENLRQQQPQQQVQSSQPQPQPQQLQQQPNGQRPNYYPEPLLQQQQRDSQEQQQQVPMATTRATQYPPQINSNNFNTNQASVPPQMRSNPQQPPQDKPAGQSIWL
# notes: cloned into pFastBacHT A with a TEV cleavage site after the tag; also called FL Hrr25; Hrr25 WT; source: Trichoplusia ni High Five cells, purified (NiNTA, gel filtration)
# B2: GST-tagged Sit4 (enzyme, Saccharomyces cerevisiae (budding yeast), UniProt P20604 1-311, looked up)
# chain: MVSRGPDEWLETIKKCQALTENEMKQLCEMVKELLMEESNIQPVQTPVTVCGDIHGQFHDLLELFRTAGGFPDDINYIFLGDYVDRGYYSLETFTLLMCLKVKYPAKITLVRGNHESRQITQVYGFYEECLNKYGSTTVWKYCCQVFDFLTLAAIIDGKILCVHGGLSPEIRMLDQIRVLSRAQEVPHEGGFSDLLWSDPDNVEAWQVSPRGAGWLFGSKVAREFNHVNGLNLIARAHQLVMEGFKYHFPEKDVVTVWSAPNYCYRCGNVASVMKVDEDLEPTFKIFSAVPDDYIRESTANHNNQRAGYFL
# notes: Sit4, phosphatase of Saccharomyces cerevisiae, expressed from the pETM30 vector; also called GST-Sit4; Sit4 phosphatase
# B3: full-length (FL) yeast Hrr25, autophosphorylated (enzyme, Saccharomyces cerevisiae (budding yeast), UniProt P29295 1-494, looked up)
# chain: B1 chain
# modifications: autophosphorylation sites mapped by MS: phospho-Thr27, Ser31, Ser143, Thr144, Ser181, Ser191, Ser198, Ser438, Thr449, Thr453, Ser461, Ser470, Ser491
# notes: Hrr25, casein kinase 1 of Saccharomyces cerevisiae, full length, after autophosphorylation with ATP; also called pHrr25; autophosphorylated FL kinase; source: Trichoplusia ni High Five cells, purified (NiNTA, gel filtration); incubated with 1 mM ATP for 1 h at 30°C
# B4: Hrr25 1-394, autophosphorylated (domain or fragment, Saccharomyces cerevisiae (budding yeast), UniProt P29295 1-394, looked up)
# chain: T2 sequence (looked up)
# modifications: autophosphorylation sites mapped by MS: the sites detected in full length Hrr25 (Thr27, Ser31, Ser143, Thr144, Ser181, Ser191, Ser198) and in addition Ser41, Ser44, Ser60, Ser153, Thr161, Ser236, Thr239, Ser242, Tyr266, Ser317, Thr326, Ser330, Thr346, Ser376
# notes: source: E. coli pRARE cells, purified (NiNTA, gel filtration); incubated with 1 mM ATP for 1 h at 30°C
# What was measured:
# Test in all cases: pull-down; 20 μg GST-tagged bait mixed with equimolar Hrr25 variant, GST Sepharose 4B, 1 h at 4°C; 20 mM Tris pH 7.5, 150 mM NaCl, 0.5% Tween 20, 2 mM DTT, 2 mM MgCl2; three washes; SDS-PAGE and WB with Hrr25-specific antibodies
# Details in all cases: both partners purified
# FL GST-Elp1 = biological target: T1, FL GST-Elp1
# [1] = biological target: T2, Hrr25 1-394, nonphosphorylated
# [2] = biological target: B1
# GST-Elp1 1-734 = biological target: T3, GST-Elp1 1-734
binder,measurement,setting,value
B1,binding result,FL GST-Elp1,binds
B2,binding result,[1],binds
same,binding result,[2],binds
B3,binding result,FL GST-Elp1,binds
B4,binding result,GST-Elp1 1-734,binds
